The source of these data is article PMC6564688 (Nature structural & molecular biology, 2019).

In one series the target is chicken Otop3 (chicken). As to the kind of experiment: cryo-EM structure.
The series “cryo-EM structure” concerns the molecule itself. As to the kind of experiment: cryo-EM structure.

One may read the stoichiometry N as the number of molecules, sites or subunits per partner or assembly.

Consider chicken Otop3 (natural protein), for which the stoichiometry N with chicken Otop3 (chicken) amounted to 2.

B1: zebrafish Otop1 (natural protein, UniProt Q7ZWK8 1-586, looked up)
chain: MVEHGGTDSMWLNKYNPAAASSASSSSSSDAENKLFSRLKVSLTKKYPQKNAELLSAQYGTNLLLLGVSVMLALAAQSGPVKEEHLLSFITVLMLVQLVWMLCYMIRRERERSPVPERDAHAGASWIRGGLTMLALLSLIMDAFRIGYFVGYHSCISAALGVYPIVHALHTISQVHFLWFHIKDVIKKYETFERFGVIHAVFTNLLLWCNGVMSETEHFMHNHRRRLIEMGYANLSTVDVQPHCNCTTSVCSMFSTSLYYLYPFNIEYHIFVSAMLFVMWKNIGRTLDRHSNRKRRSTGSTGLLLGPLGGLVALASSVSVLVVYLIHLEKTEEMHEAAVSMFYYYGVAMMACMCVGSGTGLLVYRMENRPMDTGSNPARTLDTELLLASSLGSWLMSWCSVVASVAEAGQKSPSFSWTSLTYSLLLVLEKCIQNLFIVESLYRRHSEEEEDAAAPQVFSVAVPPYDGILNHGYEAHDKHREAEPAAGSHALSRKQPDAPLPAGQRLDVTPGRKRQILKNICMFLFMCNISLWILPAFGCRPQYDNPLENETFGTSVWTTVLNVAIPLNLFYRMHSVASLFEVFRKV
As to B1, the “stoichiometry N” value in “cryo-EM structure” came out at 2.
